The target in assay [1] is HKU24 HR2 peptide (HKU24). As to the kind of experiment: peptide ELISA. On the technique in general: ELISA stands for enzyme-linked immunosorbent assay.
In assay [2] the target is C-terminally truncated SARS-CoV-2 S protein (pSARS-CoV2-Strunc), ancestral (SARS-CoV-2, UniProt P0DTC2 14-1273). Kind of assay: cell-based or functional assay.
The target of assay [3] is SARS-CoV-2 S of the Ancestral pseudovirus (pSARS-COV2-Strunc) (SARS-CoV-2 (ancestral), UniProt P0DTC2 14-1254). As to the kind of experiment: cell-based or functional assay.
For assay [4], the target named is SADS FP peptide (SADS). As to the kind of experiment: peptide ELISA.
For assay [5], the target named is T1, HCoV-229E S ectodomain (HCoV-229E).
T1 construct: range 17-1142
Kind of assay: ELISA on coated S.

The source of these data is patent publication US20250382354A1 (INSTITUTE FOR RESEARCH IN BIOMEDICINE IRB, published 2025).

The EC50 is the concentration at which the effect is half-maximal.

B1: hr2.017 (antibody, V domains shown)
VH: EVQLVESGGGLVQPGGSLRLSCAVSGFAFSSSWMHWIRQAPGRGLVWVSRINRDGSTTDYADSVKGRFTISRDNAKATLYLQMNSLRAEDTAVYYCATMGFDYWGQGALVTVSS
VL: DIVMTQSPDSLAVSLGERATINCKSSQNVLYSSNNKNHLSWYQQKPGQPPKLLIYWASTRKSGVPDRFSGSGSGTDFTLTINSLQAEDVAVYYCQQYFSTPNTFGQGTKLEIK
Turning to B1, the response in assay [1] was half-maximal at 0.0176 mg/L (EC50). Further, in assay [2], the “Ancestral Pseudovirus IC50” value came to 0.542 mg/L.

B2: rbd.048 (antibody, V domains shown)
VH: EVQLVESGGGLVQPGGSLRLSCAASGFTVSSNYMTWVRQAPGKGLEWVSVIYSGGSTFYTDSVKGRFTISRDNSKNTLYLQMNSLRAEDTAVYYCARDVVYYGMDVWGQGTTVTVSS
VL: DIQMTQSPSSLSASVGDRVTITCRASQSISSYLNWYQQKPGKAPKLLIYAASSLQSGVPSRFSGSGSGTDFTLTISSLQPEDFATYYCQESYSNSPYTFGQGTKLEIK
Regarding B2, the “Ancestral Pseudovirus IC50” value in assay [3] was 0.00275 mg/L.

B3: fp.010 (antibody, V domains shown)
VH: EVQLLESGGGLVQPGGSLRLSCAASGFTFSTYAMNWVRQAPGKGLEWVSAISSSGLSTQYADSVRGRFTISRDTSKNTLYLHMNSLRAGDTAVYYCAKVEYSGYDPRGPFDSWGQGTLVTVSS
VL: DIQMTQSPSTLSASVGDRVTITCRASQSISGWLAWYQQKPGRAPKLLIYKASSLERGVPSRFSGSGSGTEFTLTISSLQPDDFATYYCQEYSSYPLCTFGQGTKLEIK
For the molecule B3, the EC50 in assay [4] amounted to 0.0644 mg/L.

B4: hr2.021 (antibody, V domains shown)
VH: QVQLVQSGAEVKKPGASVKVSCKASEAIFSGSYLHWVRQAPGQGLEWMGIITPSGDKTFYAQRFQGRLTMTRDTSTNTLHMHLSGLNSEDTAMYYCARQADKGGWDYWGQGTLVTVSS
VL: EIVLTQSPGTLSLSPGERATLSCRASQSVTSNYVAWYQQKPGQAPRLLIYGASTRATGIPDRFSGGGSGTDFTLTITRLEPEDFAVYYCQQYGSSPPTFTFGPGTKVDIK
B4: the midpoint of the response in assay [1], the EC50, lay at 0.0195 mg/L. For the same molecule, the “Ancestral Pseudovirus IC50” value in assay [2] stood at 3.02 mg/L.

B5: hr2.024 (antibody, V domains shown)
VH: QVQLVQSGAEVKKPGASVKVSCKASEDIFTDSYLHWVRQAPGQGLEWMGIITPSGDKTFYAQQFQGRLTMTRDPSTNTLYMFLSGLRSDDTAMYFCARQAEKGGWDYWGHGTLVTVSS
VL: EIVLTQSPGTLSLSPGQRATLSCRSSQTITSNYLAWYQQRPGQAPRLLIYGASIRATGIPDRFSGSGSGTDFTLTISRLEPEDFAVYYCQQYGSSPPTFIFGPGTKVDIK
Consider B5, for which the EC50 in assay [1] was 0.0218 mg/L. Further, the “Ancestral Pseudovirus IC50” value in assay [2] is 0.301 mg/L.

B6: hr2.015 (antibody, V domains shown)
VH: QVQLVQSGAEVKKPGASVKVSCKASGYTFSSYYVNWVRQAPGQGLEWLGIINRSGSSTIYAQKFQGRVTMTRDTSTSTVYLELSSLRSEDTAVYYCARDQDHALHWGQGTLVTVSS
VL: QSVLTQPPSVSAAPGQKVTISCSGSSSNIGSNYVSWYQQLPGTAPKLLIYDNSERPSGIPDRFSGSRSGTSATLGITGLQTGDEADYYCGTWDTSLSAWVFGGGTKLTVL
Turning to B6, in assay [1], it took 0.0482 mg/L to reach a half-maximal effect (EC50). In addition, the “Ancestral Pseudovirus IC50” value in assay [2] came out at 3.83 mg/L.

B7: hr2.020 (antibody, V domains shown)
VH: EVQLVQSGAEVKKPGESLKISCKGSGYRFASHWIGWVRQMPGKGLQWMGIIYPGDSDTKYSPSFQGQVTISADKSINTVYLHWTSLKASDTAVYYCARRPPHLDGGDSPIRFDHWGQGTLVTVSS
VL: QSVLTQPPSASGTPGQRVTISCSGSRSNIGSNDVYWYQQFPGTAPKLLIYRNNQRPSGVPDRFSGSKSGTSASLAISGLRSEDEADYYCATWDDRLTGVFGGGTKLTVV
With B7, a half-maximal response in assay [1] (EC50) required 0.0329 mg/L.

B8: fp.006 (antibody, V domains shown)
VH: VQLVESGGGVVQPGGSLRLSCAASGFNFNNYALHWVRQAPGKGLEWVAIISYEARNKKYGVSVMGRFSISRDNSKSIMYLEMNSLRVEDTGVYYCARDLFLSDYDRSGYDPTRGGFDHWGQGTLVTVSS
VL: EIVMTQSPATLSVSPGERATLSCRASQSVSSSLAWYQHRFGQAPRLLISGASTRATGIPGRFSGSGSGTEFTLTISSLQSEDVAVYYCQQYGDWPLVTFGGGTKVEIK
As to B8, the EC50 was found to be 0.0154 mg/L in assay [4] and 0.0349 mg/L in assay [5].
